According to article PMC10541619 (bioRxiv, 2023):

Molecular target: the molecule itself
Assay: mass photometry

B1: RADX-N (RADX 43-560, C-terminal truncation construct) (domain or fragment, human, UniProt Q6NSI4 43-560, looked up)
chain: RSWIQKVLEQIMDSPRQCVTPSEVVPVTVLAVQRYLLEDEPRDTVPKPPLYCYDVTISDGVYQEKCYLDPSLNSLVYQNILKVGIQMRISRVSCLYNEKRIGQGILCIDNVHCGETSDSISLETPFRNRAHQEKPERPLRGGKSHYLALWNNEDPYGDIWLTDKQPEEHNFSDTKIISLSHLEMTWTNRRNFPALLVRILHKSKLRYYGKPDKKMIEPYQTFLEVADSSGTVSVIMWNALCPEWYKSLRVGLVLLLQDYSVKKSYPFRIQPVPVDPQIKLISTMEICLNLRDPPTNIIIIPEKQVKPEWRLPKLNHRFTTRSELDDMPENCICDVIGLLVFVGRVQRSKKKENREDFWSYRWIHIADGTSEQPFIVELFSTSQPEIFENIYPMAYFVCTQLKVVRNDNQVPKLLYLTTTNESGVFITGHRGQPYTYDAKVKNFIQWIRTKSDSGEQKNMVIGGYYPYPPVPETFSKYSSSIKVESLLTAISEVRKEIEDLQYREQKRIAIQGIITAIK
  stoichiometry N: 2
